Results from US20130330346A1 (Novartis, published 2013).
Positions count from the first letter of the chain named. Read-outs that look alike come from different tables or passages of the source. Ends that are not written are not given here.

Key:
[1] = target: T1, Human CXCR2 (human, UniProt P25025 1-360); test: cell-based or functional assay
T1 sequence: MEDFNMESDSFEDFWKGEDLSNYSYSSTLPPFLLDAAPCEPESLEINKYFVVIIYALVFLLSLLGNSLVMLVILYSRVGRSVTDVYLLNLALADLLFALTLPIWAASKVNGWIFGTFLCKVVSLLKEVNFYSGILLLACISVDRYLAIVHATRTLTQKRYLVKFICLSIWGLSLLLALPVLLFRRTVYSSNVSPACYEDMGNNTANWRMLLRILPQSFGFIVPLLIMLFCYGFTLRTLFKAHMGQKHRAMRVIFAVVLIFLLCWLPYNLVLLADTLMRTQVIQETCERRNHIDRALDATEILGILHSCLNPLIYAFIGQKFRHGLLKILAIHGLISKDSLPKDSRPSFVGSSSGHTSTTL

[2] = target: T2, Cynomolgus CXCR2 (cynomolgus, UniProt Q28519 3-353 (rhesus entry)); test: cell-based or functional assay
T2 chain: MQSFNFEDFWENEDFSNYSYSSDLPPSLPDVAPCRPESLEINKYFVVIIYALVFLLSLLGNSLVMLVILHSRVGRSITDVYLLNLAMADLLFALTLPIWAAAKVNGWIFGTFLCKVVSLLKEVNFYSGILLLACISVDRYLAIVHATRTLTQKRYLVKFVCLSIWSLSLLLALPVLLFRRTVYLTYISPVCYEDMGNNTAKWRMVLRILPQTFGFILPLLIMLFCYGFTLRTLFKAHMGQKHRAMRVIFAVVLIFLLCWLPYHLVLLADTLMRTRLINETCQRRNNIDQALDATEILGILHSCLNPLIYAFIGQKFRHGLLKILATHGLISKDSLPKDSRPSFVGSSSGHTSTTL

[3] = target: T1, Human CXCR2; test: cell-based or functional assay; remark: listed apart in the source
[4] = target: T2, Cynomolgus CXCR2; test: cell-based or functional assay
[5] = target: T1, Human CXCR2; test: FACS competition vs 3 nM FMAT-Blue Gro-α
Description: (§1) Purified monovalent anti-CXCR2Nanobodies were titrated against 3 nM FMAT-Blue-labeled Gro-α in the FACS ligand competition assay on human and cynomolgus CXCR2 (Table 10). On human CXCR2, blocking potencies range between double digit nM and sub-nM whereas on cynomolgus CXCR2, they range between single and double digit nM.

[6] = target: T2, Cynomolgus CXCR2; test: FACS competition vs 3 nM FMAT-Blue Gro-α
Description: as §1

[7] = target: T3, Human 1to19 peptide (human); test: ELISA, periplasmic extract on biotinylated peptide
T3 construct: First 19 N-terminal amino acids of human CXCR2, captured on neutravidin; also called human CXCR2 1 to19 peptide; 1-19 Nter peptide
T3 peptide: MEDFNMESDSFEDFWKGED-biotin
Description: In another setup, periplasmic extracts were analyzed for binding to human 1 to 19 peptide by ELISA. MaxiSorb plates (Nunc, 430341) were coated for two hours with neutravidin followed by one hour blocking (PBS, 1% casein). Then 100 nM biotinylated human 1 to 19 peptide was added to these plates for one hour (PBS, 0.1% casein, 0.05% tween20) followed by one hour incubation with 10-fold dilutions of periplasmic extracts. Unbound periplasmic extracts were washed away (PBS supplemented with 0.05% tween20) and bound Nanobodies were detected using mouse anti-myc (Roche, 11667149001) followed by rabbit anti-mouse-HRP conjugate (Dakocytomation, P0260). Table 8 summarizes the ratios of the binding signals of anti-CXCR2Nanobodies over an irrelevant control Nanobody.

[8] = target: T2, Cynomolgus CXCR2; test: FACS hGro-α competition
[9] = target: T1, Human CXCR2; test: cell-based or functional assay; remark: listed apart in the source
[10] = target: T2, Cynomolgus CXCR2; test: cell-based or functional assay
[11] = target: T1, Human CXCR2; test: FACS hGro-α competition
[12] = target: T2, Cynomolgus CXCR2; test: FACS hGro-α competition
[13] = target: T1, Human CXCR2; test: cell-based or functional assay; remark: listed apart in the source
[14] = target: T2, Cynomolgus CXCR2; test: cell-based or functional assay
[15] = target: T1, Human CXCR2; test: FACS, periplasmic extract vs FMAT Blue Gro-α
Outline: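 Cells (2×10⁵) preincubated 30 min at 4 °C with ½-diluted periplasmic extracts in PBS/10% FBS. An equal volume of 6 nM FMAT Blue-labelled human Gro-α was then added for another 30 min at 4 °C in the dark. After washing, dead cells were excluded with propidium iodide and binding read by flow cytometry.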

B1: 54B12 (VHH)
VHH: EVQLVESGGGLVQAGGSLTLSCAVSGSTFRINTMGWYRRAPGKQRELVAARDRGGYINYVDSVKGRFTVSRDNAKPTMYLQMNSLKPEDTAVYYCHAGTQDRTGRNFDRWGQGTQVTVSS
notes: Tested as periplasmic extract (pAX50) and as purified His6-tagged protein (pAX100); also called 054B12; not shown: C-terminal c-myc tag and His6 tag coded by the vector
[1]
  FLIPR % inhibition max: 100%
  FLIPR IC50 (GRO-α induced calcium release): 153 nM
  [35S]GTPγS % inhibition max (GRO-α): 71.8%
  [35S]GTPγS IC50 (GRO-α): 15.4 nM
[2]
  FLIPR % inhibition max: 100%
  FLIPR IC50 (GRO-α induced calcium release): 4080 nM
[3]
  FLIPR hGro-α IC50: 150 nM
[4]
  FLIPR hGro-α IC50: 1100 nM
[5]
  % inhibition of max: 35%
  IC50: 0.857 nM
[6]
  % inhibition of max: 63%
  IC50: 39.5 nM
[7]
  ratio of binding signal relative to blank control: 75.5 ratio
[8]
  IC50: 33 nM
[9]
  Human WBSC IC50 (rhGROα): 19.7 nM
[10]
  Cynomologus WBSC IC50 (rhGROα): > 100 nM

B2: CXCR20104 (VHH)
VHH: B1 VHH with V5L, A14P, T19R, R39Q, V69I, A74S, K86R, Q115L
notes: also called CXCR2104
[3]
  FLIPR hGro-α IC50: 59 nM
[4]
  FLIPR hGro-α IC50: 3500 nM
[8]
  IC50: 13 nM

B3: 163D2 (VHH)
VHH: EVQLVESGGGLVQAGGSLRLSCAASGRTFSDYAMGWFRQAPGKEREFVAAITWNGGRVFYTASVKGRFTISRDNAKNTMYLQMNSLKPEDTAVYYCAADKDRRTDYLGHPVAYWGQGTQVTVSS
notes: Tested as periplasmic extract (pAX50) and as purified His6-tagged protein (pAX100); also called 163D02; not shown: C-terminal c-myc tag and His6 tag coded by the vector
[11]
  IC50: 2.8 nM
[12]
  IC50: 7.1 nM
[1]
  FLIPR % inhibition max: 100%
  FLIPR IC50 (GRO-α induced calcium release): 1.91 nM
  [35S]GTPγS % inhibition max (GRO-α): 100%
  [35S]GTPγS IC50 (GRO-α): 53.2 nM
[2]
  FLIPR % inhibition max: 100%
  FLIPR IC50 (GRO-α induced calcium release): 37.2 nM
[13]
  FLIPR hGro-α IC50: 66 nM
[14]
  FLIPR hGro-α IC50: 92 nM
[5]
  % inhibition of max: 96.4%
  IC50: 6.95 nM
[6]
  % inhibition of max: 91%
  IC50: 14.8 nM
[7]
  ratio of binding signal relative to blank control: 0.5 ratio
[15]
  FACS Gro-α competition (% inhibition): 86.8%
[9]
  Human WBSC IC50 (rhGROα): 6.6 nM
[10]
  Cynomologus WBSC IC50 (rhGROα): > 100 nM

B4: CXCR20086 (VHH)
VHH: B3 VHH with V5L, A14P, A75S, M79L, K87R, Q119L
[11]
  IC50: 2 nM
[12]
  IC50: 4.8 nM
[13]
  FLIPR hGro-α IC50: 73 nM
[14]
  FLIPR hGro-α IC50: 85 nM
